The target in experiment [1] is HIV-1 CA protein (capsid) (HIV-1). The experiment in a line: cell-based or functional assay.
Experiment [2] concerns the target HIV-1 gag polyprotein (HIV-1). The experiment in a line: cell-based or functional assay.

For the substance NYAD-1 (peptide), the inhibition of mature-like particle formation from purified CA protein in vitro (EM) (fold molar equivalent) in experiment [1] is 1. In experiment [2], this substance showed a release of immature-like particles from gag-transfected 293T cells (p24 ELISA) (fold reduction at 50 µM) of 72 and a release of mature-like particles from gag-pol transfected 293T cells (p24 ELISA) (fold reduction at 50 µM) of 67.

Source of the values: patent US20120165249A1.
